The text below walks through data of US20240317847A1 (Bayer, published 2024).

The chains are these.
B1: TPP-29528 (antibody, mouse IgG1)
heavy: EVQLLESGGGLVQPGGSLRLSCAASGFTFSSYGMHWVRQAPGKGLEWVAVISYDGSYKYYADSVKGRFTISRDNSKNTLYLQMNSLRAEDTAVYYCAAGVPDYWGQGTLVTVSSAKTTPPSVYPLAPGSAAQTNSMVTLGCLVKGYFPEPVTVTWNSGSLSSGVHTFPAVLQSDLYTLSSSVTVPSSTWPSETVTCNVAHPASSTKVDKKIVPRDCGCKPCICTVPEVSSVFIFPPKPKDVLTITLTPKVTCVVVDISKDDPEVQFSWFVDDVEVHTAQTQPREEQFNSTFRSVSELPIMHQDWLNGKEFKCRVNSAAFPAPIEKTISKTKGRPKAPQVYTIPPPKEQMAKDKVSLTCMITDFFPEDITVEWQWNGQPAENYKNTQPIMDTDGSYFVYSKLNVQKSNWEAGNTFTCSVLHEGLHNHHTEKSLSHSPGK
light: QSVLTQPPSASGTPGQRVTISCSGSSSNIGSDYDVHWYQQLPGTAPKLLIYSNEERPSGVPDRFSGSKSGTSASLAISGLRSEDEADYYCSAWDSSLSGPVFGGGTKLTVLGQPKSSPSVTLFPPSSEELETNKATLVCTITDFYPGVVTVDWKVDGTPVTQGMETTQPSKQSNNKYMASSYLTLTARAWERHSSYSCQVTHEGHTVEKSLSRADCS
notes: mIgG1, Lambda
B2: TPP-29523 (antibody, mouse IgG1)
heavy: QVQLVESGGGVVQPGRSLRLSCAASGFTFSHYDMHWVRQAPGKGLEWVAVISYEGSVKFYADSVKGRFTISRDNSKNTLYLQMNSLRAEDTAVYYCARTPGFHFDYWGQGTLVTVSSAKTTPPSVYPLAPGSAAQTNSMVTLGCLVKGYFPEPVTVTWNSGSLSSGVHTFPAVLQSDLYTLSSSVTVPSSTWPSETVTCNVAHPASSTKVDKKIVPRDCGCKPCICTVPEVSSVFIFPPKPKDVLTITLTPKVTCVVVDISKDDPEVQFSWFVDDVEVHTAQTQPREEQFNSTFRSVSELPIMHQDWLNGKEFKCRVNSAAFPAPIEKTISKTKGRPKAPQVYTIPPPKEQMAKDKVSLTCMITDFFPEDITVEWQWNGQPAENYKNTQPIMDTDGSYFVYSKLNVQKSNWEAGNTFTCSVLHEGLHNHHTEKSLSHSPGK
light: QSVLTQPPSASGTPGQRVTISCSGSSSNIGSNYVNWYQQLPGTAPKLLIYYDDLRPSGVPDRFSGSKSGTSASLAISGLRSEDEADYYCSAWDDSLSGVVFGGGTKLTVLGQPKSSPSVTLFPPSSEELETNKATLVCTITDFYPGVVTVDWKVDGTPVTQGMETTQPSKQSNNKYMASSYLTLTARAWERHSSYSCQVTHEGHTVEKSLSRADCS
notes: mIgG1, Lambda
B3: TPP-29520 (antibody, mouse IgG1)
heavy: B2 heavy with E54S, F102S
light: B2 light
notes: mIgG1, Lambda
B4: TPP-29521 (antibody, mouse IgG1)
heavy: B2 heavy with V57N
light: B2 light with N35S
notes: mIgG1, Lambda
B5: TPP-29519 (antibody, mouse IgG1)
heavy: B2 heavy with E54H
light: B2 light with N35S
notes: mIgG1, Lambda

Changes are numbered by the printed parent chain.

The first assay addresses T1, human IL-11 (human, UniProt P20809 22-199).
T1 sequence: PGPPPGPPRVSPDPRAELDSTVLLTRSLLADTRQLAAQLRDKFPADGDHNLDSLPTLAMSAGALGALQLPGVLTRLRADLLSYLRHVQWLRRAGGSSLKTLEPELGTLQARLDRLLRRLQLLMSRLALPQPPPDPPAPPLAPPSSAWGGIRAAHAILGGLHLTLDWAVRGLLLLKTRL
Nature of the assay: cell-based or functional assay.
B1: the “RGA Efficacy (%)” value turned out to be 81.2%.

On to B2, for which the “RGA Efficacy (%)” value was found to be 100% and the “RGA IC50” value was 1.6 nM.

On to B3, for which the “RGA Efficacy (%)” value turned out to be 99.7% and the “RGA IC50” value was 1.7 nM.

As for B4, the “RGA Efficacy (%)” value was determined as 99.2% and the “RGA IC50” value came out at 1.9 nM.

On to B5, for which the “RGA Efficacy (%)” value was determined as 100% and the “RGA IC50” value worked out at 1.8 nM.

The target of a further assay is T2, murine IL-11 (mouse, UniProt P47873 22-199).
T2 sequence: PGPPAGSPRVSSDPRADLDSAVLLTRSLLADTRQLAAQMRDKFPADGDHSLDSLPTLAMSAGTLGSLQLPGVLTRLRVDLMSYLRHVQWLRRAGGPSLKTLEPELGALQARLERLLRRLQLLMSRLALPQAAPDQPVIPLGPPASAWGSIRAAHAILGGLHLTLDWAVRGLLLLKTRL
The assay can be described thus: cell-based or functional assay.
With B1, the “RGA Efficacy (%)” value was 96.9% and the “RGA IC50” value was found to be 0.89 nM.

Turning to B2, the “RGA Efficacy (%)” value is 101% and the “RGA IC50” value came to 1.4 nM.

As for B3, the “RGA Efficacy (%)” value was 100% and the “RGA IC50” value worked out at 0.91 nM.

B4: the “RGA Efficacy (%)” value was 103% and the “RGA IC50” value is 0.76 nM.

For the molecule B5, the “RGA Efficacy (%)” value stood at 101% and the “RGA IC50” value is 1.2 nM.

The next assay addresses T3, cynomolgus IL-11 (cynomolgus, UniProt P20808 22-199).
T3 sequence: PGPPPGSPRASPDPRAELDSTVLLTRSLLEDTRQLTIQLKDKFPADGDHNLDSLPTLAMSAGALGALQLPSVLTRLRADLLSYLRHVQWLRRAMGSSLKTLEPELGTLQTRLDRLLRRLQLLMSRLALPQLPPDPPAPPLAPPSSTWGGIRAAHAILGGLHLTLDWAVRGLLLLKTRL
Nature of the assay: cell-based or functional assay.
As for B1, the “RGA Efficacy (%)” value was found to be 87.8% and the “RGA IC50” value was 0.44 nM.

As to B2, the “RGA Efficacy (%)” value turned out to be 97.2% and the “RGA IC50” value turned out to be 0.68 nM.

For the molecule B3, the “RGA Efficacy (%)” value amounted to 58.6%.

For the molecule B4, the “RGA Efficacy (%)” value was 60%.

As for B5, the “RGA Efficacy (%)” value was found to be 99.2% and the “RGA IC50” value turned out to be 0.89 nM.

For the next assay, the target named is T4, rat IL-11 (rat, UniProt Q99MF5 22-199).
T4 sequence: T2 sequence with S50N, L84F, G94A, V137A, I138V
The assay can be described thus: cell-based or functional assay.
Take B1: the “RGA Efficacy (%)” value stood at 89.9% and the “RGA IC50” value was determined as 1.8 nM.

Consider B2, for which the “RGA Efficacy (%)” value came to 101% and the “RGA IC50” value was determined as 1.4 nM.

Turning to B3, the “RGA Efficacy (%)” value turned out to be 101% and the “RGA IC50” value stood at 1.3 nM.

Consider B4, for which the “RGA Efficacy (%)” value came to 98.9% and the “RGA IC50” value turned out to be 1.8 nM.

For B5, the “RGA Efficacy (%)” value stood at 99.7% and the “RGA IC50” value was 1 nM.

For a further assay, the target named is T1, human IL-11. Nature of the assay: SPR 37 C, antibody captured, IL-11 as analyte. The method, then: (§1) To assess the binding kinetics and affinity of anti-IL-11 antibodies as well as their species cross-reactivity profile, binding assays were conducted using surface plasmon resonance (SPR). Binding assays were performed on a Biacore T200 instrument or on a Biacore 8K+ instrument (Cytiva) at 37° C. using assay buffer HBS EP+, 300 mM NaCl, 1 mg/ml BSA, 0.05% NaN3. Antibodies were captured either via anti-human Fc IgGs (“Human antibody capture kit”, Order No. BR100839, Cytiva) or via anti-mouse Fc IgGs (“Mouse antibody capture kit, Order No. BR100383, Cytiva) covalently amine coupled to a Series S CM5 sensor chip (Cytiva) depending on the isotype. The amine coupling was carried out according to the manufacturer's instructions using 1-ethyl-3-(3-dimethylaminopropyl) carbodiimide hydrochloride (EDC), N-hydroxysuccinimide (NHS) and ethanolamine HCl, pH 8.5 (“Amine Coupling Kit” BR-1000-50, Cytiva.). Human, mouse, cynomolgus or rat IL-11 was used as analyte at several dilutions within the concentration range from 0.05-200 nM. For binding assays with only one concentration 200 nM IL-11 was used. The sensor surface was regenerated with glycine pH 1.7 after each antigen injection. Obtained sensorgrams were double referenced (subtraction of reference flow cell signal and buffer injection) and were fitted to a 1:1 Langmuir binding model to derive kinetic data using the Biacore T200 Evaluation software or the Biacore Insight software. If no value is reported, there was either no binding or very low binding and multiphasic binding behavior. Values below 1E-12 were considered to be below the dynamic range of the instrument and set to <1E-12.
For the molecule B1, the Kd – broadly, a measure of binding affinity in units of concentration – was 0.34 nM.

B2 came in with a Kd of 0.0026 nM.

As to B3, binding was put at a Kd of 0.09 nM.

B4 gave a Kd of 0.18 nM.

Molecule B5 came in with a Kd of 0.01 nM.

For a further assay, the target named is T2, murine IL-11. Nature of the assay: SPR 37 C, antibody captured, IL-11 as analyte. How it is done: as §1
B1 displayed a Kd of 0.23 nM.

On to B2, for which the affinity, expressed as Kd, was 0.004 nM.

Take B3: the Kd worked out at 0.11 nM.

Regarding B4, binding was characterised by a dissociation constant (Kd) of 0.098 nM.

Molecule B5 came in with a Kd of 0.0035 nM.

In another assay the target is T3, cynomolgus IL-11. Nature of the assay: SPR 37 C, antibody captured, IL-11 as analyte. How it is done:
as §1
B1: the Kd amounted to 0.2 nM.

As for B2, binding was characterised by a dissociation constant (Kd) of 1.1 nM.

As to B3, the binding result is reported as “no binding (tested: IL-11 up to 200 nM)”.

In the case of B4, the binding result is “no binding (tested: IL-11 up to 200 nM)”.

B5 gave an equilibrium dissociation constant (Kd) of 0.61 nM.

The target of a further assay is T4, rat IL-11. Nature of the assay: SPR 37 C, antibody captured, IL-11 as analyte. How it is done: as §1
Molecule B1 had a dissociation constant Kd of 0.33 nM.

With B2, the affinity, expressed as Kd, was 0.02 nM.

As to B3, the affinity, expressed as Kd, was 0.29 nM.

For the molecule B4, the dissociation constant Kd is 2.1 nM.

As to B5, the affinity, expressed as Kd, was 0.023 nM.

The next assay addresses T1, human IL-11. Nature of the assay: Di-complex ELISA, competitor canine IL11RA-Fc on coated IL-11.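 On Efficacy (%): signal drop relative to signal at lowest antibody concentration.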 The method, then:
(§2) The assay is performed using streptavidin coated microtiter plates (Greiner bio-one, #781997). In a first step, 10 nM biotinylated mouse IL-11 (Invigate, Germany, e.g., lot #C210819-09) or human IL-11 (Invigate, Germany, e.g., lot #C121021-19) is coated in 25 μl PBS on the plate at 4° C. overnight. Next day, the plate is washed three times with 50 μl PBST and then blocked with 50 μl SmartBlock (Candor, #113125) for one hour at room temperature (RT). After additional three washes with PBST, 25 μl of a mixture of the murine anti IL-11 antibody and recombinant canine IL11RA-Fc fusion protein (Sino Biological, #70078-D02H) in PBS-T, 10% Smartblock are added simultaneously to the plate and incubated for one hour at RT. […] After three additional washes with PBS-T, 25 μl anti-human-POD (Sigma, #A0170) in PBS-T, 10% Smartblock is added and incubated for 1 hour at RT. After a final three washes with PBS-T, 25 μl AmplexRed (Fisher Scientific, A12222), 1/1000 in PBS, 0,003% H₂O₂, is added as substrate and incubated for 15 min at RT in the dark. Then, the fluorescence is measured with a plate reader at 535/595 nm. Signals from dose responses were used to calculate IC50 values (GraphPad Prism). Efficacy was calculated as [(signal measured at lowest antibody concentration−signal measured at the highest antibody concentration)×100] divided by (signal measured at lowest antibody concentration−signal measured in the absence of IL11Ra).
(§3) IgG converted antibodies were subjected to the experimental assay procedure described in Example 18.
(In an ELISA, binding on a coated surface is turned into a signal by an enzyme label.)
Consider B1, for which the “Efficacy (%)” value came to 36.3%.

Take B2: the “Efficacy (%)” value came out at 2%.

B3: the “Efficacy (%)” value came out at 0.3%.

With B4, the “Efficacy (%)” value is 1.7%.

For the molecule B5, the “Efficacy (%)” value was 6.8%.

A further assay concerns the target T2, murine IL-11. The description is as above. The method, then:
as §2, §3
Regarding B1, the “Efficacy (%)” value turned out to be 43.4% and the IC50 (commonly the midpoint of a concentration-inhibition curve) is 2.6 nM.

As to B2, the “Efficacy (%)” value is 4.8%.

B3: the “Efficacy (%)” value was 1.1%.

Regarding B4, the “Efficacy (%)” value was 12.1%.

With B5, the “Efficacy (%)” value came to 12.8%.
